The target in the assay is T1, WT1 (Wilms' tumor protein) peptide on HLA-A*02:01 (human).
T1 peptide: RMFPNAPYL
The assay is described as follows: killing.

B1: TCR-G (TCR, V domains shown)
Valpha: DQQVKQNSPSLSVQEGRISILNCDYTNSMFDYFLWYKKYPAEGPTFLISISSIKDKNEDGRFTVFLNKSAKHLSLHIVPSQPGDSAVYFCAARGQGNLIFGKGTKLSVKP
Vbeta: EAGVAQSPRYKIIEKRQSVAFWCNPISGHATLYWYQQILGQGPKLLIQFQNNGVVDDSQLPKDRFSAERLKGVDSTLKIQPAKLEDSAVYLCASSLYRGEQYFGPGTRLTVT
For the molecule B1, the binding result is reported as “no recognition”.

B2: TCR-F (TCR, V domains shown)
Valpha: AQKITQTQPGMFVQEKEAVTLDCTYDTSDPSYGLFWYKQPSSGEMIFLIYQGSYDQQNATEGRYSLNFQKARKSANLVISASQLGDSAMYFCAISGNTPLVFGKGTRLSVIA
Vbeta: AAGVIQSPRHLIKEKRETATLKCYPIPRHDTVYWYQQGPGQDPQFLISFYEKMQSDKGSIPDRFSAQQFSDYHSELNMSSLELGDSALYFCASSLRGGLEKLFFGSGTQLSVL
Turning to B2, the binding result is given as “no recognition”.

B3: TCR-H (TCR, V domains shown)
Valpha: RKEVEQDPGPFNVPEGATVAFNCTYSNSASQSFFWYRQDCRKEPKLLMSVYSSGNEDGRFTAQLNRASQYISLLIRDSKLSDSATYLCVVKPDPGAGSYQLTFGKGTKLSVIP
Vbeta: NAGVTQTPKFRVLKTGQSMTLLCAQDMNHEYMYWYRQDPGMGLRLIHYSVGEGTTAKGEVPDGYNVSRLKKQNFLLGLESAAPSQTSVYFCASRGYHRLNNEQFFGPGTRLTVL
Regarding B3, the binding result was “no recognition”.

Values taken from US20210340530A1 (INTELLIA THERAPEUTICS, published 2021).
